Values of other authors as cited in publication PMC12865133, “Macrocyclic Molecular Glues for the 14‐3‐3/ChREBP Interaction: Affinity and Cooperativity in an Inverse Relationship” (Angewandte Chemie (International Ed. in English), 2025).

Molecular target: ChREBP (Homo sapiens) (UniProt Q9NP71)
Settings: cited from earlier work

14-3-3, sequence (P31946 2-246): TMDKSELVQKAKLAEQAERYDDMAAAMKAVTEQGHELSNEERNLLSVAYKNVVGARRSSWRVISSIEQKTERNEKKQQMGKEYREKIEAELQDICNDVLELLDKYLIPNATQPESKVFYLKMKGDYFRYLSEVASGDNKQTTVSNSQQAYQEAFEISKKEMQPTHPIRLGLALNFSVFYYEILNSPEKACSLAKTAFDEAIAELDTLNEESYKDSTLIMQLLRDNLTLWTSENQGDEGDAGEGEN
ChREBP (Homo sapiens), sequence (Q9NP71 whole entry): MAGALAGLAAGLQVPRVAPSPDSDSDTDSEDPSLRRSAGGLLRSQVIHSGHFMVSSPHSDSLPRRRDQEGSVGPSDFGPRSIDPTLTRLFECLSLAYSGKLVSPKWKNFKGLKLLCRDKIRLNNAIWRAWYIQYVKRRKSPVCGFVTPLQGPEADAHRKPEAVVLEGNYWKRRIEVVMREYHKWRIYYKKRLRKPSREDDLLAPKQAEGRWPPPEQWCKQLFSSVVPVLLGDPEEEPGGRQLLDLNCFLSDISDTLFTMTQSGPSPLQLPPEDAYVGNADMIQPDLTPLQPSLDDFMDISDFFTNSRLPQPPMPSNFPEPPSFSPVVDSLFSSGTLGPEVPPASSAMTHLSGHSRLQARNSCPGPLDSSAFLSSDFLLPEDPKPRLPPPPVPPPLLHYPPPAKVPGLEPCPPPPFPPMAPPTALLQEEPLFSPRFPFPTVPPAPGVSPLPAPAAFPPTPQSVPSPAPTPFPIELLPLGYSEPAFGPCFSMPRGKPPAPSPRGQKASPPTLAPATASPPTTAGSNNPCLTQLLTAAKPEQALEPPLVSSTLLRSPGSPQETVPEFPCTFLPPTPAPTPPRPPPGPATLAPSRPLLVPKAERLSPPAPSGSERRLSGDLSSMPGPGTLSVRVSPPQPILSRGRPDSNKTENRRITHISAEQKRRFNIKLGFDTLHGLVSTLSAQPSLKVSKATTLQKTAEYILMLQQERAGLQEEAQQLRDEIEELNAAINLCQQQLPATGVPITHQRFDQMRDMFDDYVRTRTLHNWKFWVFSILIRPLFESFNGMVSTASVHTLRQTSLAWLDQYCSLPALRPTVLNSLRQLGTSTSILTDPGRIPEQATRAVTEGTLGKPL

Substance: 14-3-3 (from UniProt P31946)
- Kd: 1500 nM
